Earlier results in patent US20100298348A1, “Method of Decreasing Ubiquitylated Protein Levels” (priority 2009, published 2010).

Assays:
gamma secretase = details: in vivo; cited from earlier work
mouse model of AD = details: cited from earlier work
hippocampal slices = details: cited from earlier work

| Molecule | outcome of Phase III clinical trial (gamma secretase) | learning and memory (mouse model of AD) | Aβ-induced decrease in synaptic function (hippocampal slices) |
| --- | --- | --- | --- |
| C[C@@H](C(=O)O)c1ccc(-c2ccccc2)c(F)c1 [Flurizan] | failed |  |  |
| Uch-L1: ubiquitin hydrolase (protein, UniProt P09936 1-220, looked up) Ubiquitin carboxyl-terminal …: MQLKPMEINPEMLNKVLSRLGVAGQWRFVDVLGLEEESLGSVPAPACALLLLFPLTAQHENFRKKQIEELKGQEVSPKVYFMKQTIGNSCGTIGLIHAVANNQDKLGFEDGSVLKQFLSETEKMSPEDRAKCFEKNEAIQAAHDAVAQEGQCRVDDKVNFHFILFNNVDGHLYELDGRMPFPVNHGASSEDTLLKDAAKVCREFTEREQGEVRFSAVALC |  | improves | reverses |
